The record followed here is paper doi:10.64898/2025.12.08.692925.

What all share (assay): split reporter
The target in experiment [1] is Tim23 mutant M4 fused to short YFP (S. cerevisiae) (UniProt P32897).
Experiment [2] addresses Tim23 mutant M1 fused to short YFP (S. cerevisiae) (UniProt P32897).
The target in experiment [3] is Tim23 mutant M2 fused to short YFP (S. cerevisiae) (UniProt P32897).

B1: Sfc1 fused to long YFP (natural protein)
chain: MSQKKKASHPAINLMAGGTAGLFEALCCHPLDTIKVRMQIYRRVAGIEHVKPPGFIKTGRTIYQKEGFLALYKGLGAVVIGIIPKMAIRFSSYEFYRTLLVNKESGIVSTGNTFVAGVGAGITEAVLVVNPMEVVKIRLQAQHLTPSEPNAGPKYNNAIHAAYTIVKEEGVSALYRGVSLTAARQATNQGANFTVYSKLKEFLQNYHQMDVLPSWETSCIGLISGAIGPFSNAPLDTIKTRLQKDKSISLEKQSGMKKIITIGAQLLKEEGFRALYKGITPRVMRVAPGQAVTFTVYEYVREHLENLGIFKKNDTPKPKPLK
Turning to B1, the percent of fluorescent cells in experiment [1] turned out to be 9%; in experiment [2], 4%; in experiment [3], 7%.
